Changes are numbered by the printed parent chain.
B1: J3: Anti-cKIT Fab′3 conjugated to Compound (1), DAR 4 (Fab, V domains shown)
VH: QVQLVQSGAEVKKPGSSVKVSCKASGGTFSSYAISWVRQAPGQGLEWMGTIGPFEGQPRYAQKFQGRVTITADESTSTAYMELSSLRSEDTAVYYCARGGYISDFDVWGQGTLVTVSS
VL: DIQMTQSPSSLSASVGDRVTITCRASQSISNYLAWYQQKPGKAPKLLIYDASSLQSGVPSRFSGSGSGTDFTLTISSLQPEDFATYYCQQYYYESITFGQGTKVEIKR
modifications: Compound (1) on native cysteine LC-214C (EU); Compound (1) on native cysteines HC-220C-226C-229C (EU)
B2: J4: Anti-cKIT Fab′4 conjugated to Compound (1), DAR 4 (Fab, V domains shown)
VH: QVQLQQSGPGLVKPSQTLSLTCAISGDSVSTNSAAWNWIRQSPSRGLEWLGRIYYRSQWLNDYAVSVKSRITINPDTSKNQFSLQLNSVTPEDTAVYYCARQLTYPYTVYHKALDVWGQGTLVTVSS
VL: DIELTQPPSVSVSPGQTASITCSGDNLGDQYVSWYQQKPGQAPVLVIYDDTDRPSGIPERFSGSNSGNTATLTISGTQAEDEADYYCQSTDSKSVVFGGGTKLTVLG
modifications: Compound (1) on native cysteine LC-214C (EU); Compound (1) on native cysteines HC-220C-226C-229C (EU)
B3: J5: Anti-cKIT Fab′5 conjugated to Compound (1), DAR 4 (Fab, V domains shown)
VH: QVQLVQSGAEVKKPGESLKISCKGSGYSFTNYWIAWVRQMPGKGLEWMGIIYPSNSYTLYSPSFQGQVTISADKSISTAYLQWSSLKASDTAMYYCARVPPGGSISYPAFDHWGQGTLVTVSS
VL: DIELTQPPSVSVSPGQTASITCSGDNIGSIYASWYQQKPGQAPVLVIYRDNKRPSGIPERFSGSNSGNTATLTISGTQAEDEADYYCSVTDMEQHSVFGGGTKLTVLG
modifications: Compound (1) on native cysteine LC-214C (EU); Compound (1) on native cysteines HC-220C-226C-229C (EU)
B4: J14: Anti-cKIT Fab′1 conjugated to mc-MMAF, DAR 4 (Fab, V domains shown)
VH: B1 VH with T50V, G52F, F54A, Q57A, R59G
VL: B1 VL
modifications: mc-MMAF on native cysteine LC-214C (EU); mc-MMAF on native cysteines HC-220C-226C-229C (EU)
B5: J15: Anti-cKIT Fab′1 conjugated to Compound (5), DAR 4 (Fab, V domains shown)
VH: B1 VH with T50V, G52F, F54A, Q57A, R59G
VL: B1 VL
modifications: Compound (5) on native cysteine LC-214C (EU); Compound (5) on native cysteines HC-220C-226C-229C (EU)
B6: J16: Anti-cKIT Fab′1 conjugated to Compound (2), DAR 4 (Fab, V domains shown)
VH: B1 VH with T50V, G52F, F54A, Q57A, R59G
VL: B1 VL
modifications: Compound (2) on native cysteine LC-214C (EU); Compound (2) on native cysteines HC-220C-226C-229C (EU)
B7: J17: Anti-cKIT Fab′2 conjugated to mc-MMAF, DAR 4 (Fab, V domains shown)
VH: QVQLVQSGAEVKKPGSSVKVSCKASGGTFSSHALSWVRQAPGQGLEWMGGIIPSFGTADYAQKFQGRVTITADESTSTAYMELSSLRSEDTAVYYCARGLYDFDYWGQGTLVTVSS
VL: B1 VL with S28D, N31Q, Y32D, T85V, E94L, S95P, I96S
modifications: mc-MMAF on native cysteine LC-214C (EU); mc-MMAF on native cysteines HC-220C-226C-229C (EU)
B8: J18: Anti-cKIT Fab′2 conjugated to Compound (5), DAR 4 (Fab, V domains shown)
VH: B7 VH
VL: B1 VL with S28D, N31Q, Y32D, T85V, E94L, S95P, I96S
modifications: Compound (5) on native cysteine LC-214C (EU); Compound (5) on native cysteines HC-220C-226C-229C (EU)
B9: J19: Anti-cKIT Fab′2 conjugated to Compound (2), DAR 4 (Fab, V domains shown)
VH: B7 VH
VL: B1 VL with S28D, N31Q, Y32D, T85V, E94L, S95P, I96S
modifications: Compound (2) on native cysteine LC-214C (EU); Compound (2) on native cysteines HC-220C-226C-229C (EU)
B10: J20: Anti-cKIT Fab′3 conjugated to mc-MMAF, DAR 4 (Fab, V domains shown)
VH: B1 VH
VL: B1 VL
modifications: mc-MMAF on native cysteine LC-214C (EU); mc-MMAF on native cysteines HC-220C-226C-229C (EU)
B11: J21: Anti-cKIT Fab′3 conjugated to Compound (5), DAR 4 (Fab, V domains shown)
VH: B1 VH
VL: B1 VL
modifications: Compound (5) on native cysteine LC-214C (EU); Compound (5) on native cysteines HC-220C-226C-229C (EU)
B12: J2: Anti-cKIT Fab′2 conjugated to Compound (1), DAR 4 (Fab, V domains shown)
VH: B7 VH
VL: B1 VL with S28D, N31Q, Y32D, T85V, E94L, S95P, I96S
modifications: Compound (1) on native cysteine LC-214C (EU); Compound (1) on native cysteines HC-220C-226C-229C (EU)
B13: J22: Anti-cKIT Fab′3 conjugated to Compound (2), DAR 4 (Fab, V domains shown)
VH: B1 VH
VL: B1 VL
modifications: Compound (2) on native cysteine LC-214C (EU); Compound (2) on native cysteines HC-220C-226C-229C (EU)
B14: J1: Anti-cKIT Fab′1 conjugated to Compound (1), DAR 4 (Fab, V domains shown)
VH: B1 VH with T50V, G52F, F54A, Q57A, R59G
VL: B1 VL
modifications: Compound (1) on native cysteine LC-214C (EU); Compound (1) on native cysteines HC-220C-226C-229C (EU)
B15: Anti-cKIT Ab3 (antibody, human IgG1, kappa, V domains shown)
VH: B1 VH
VL: B1 VL
notes: Full-length human IgG1, kappa light chain; also called IgG control for J3

Legend:
[1] = target: Human cKIT on human mobilized peripheral blood hematopoietic stem cells (human, UniProt P10721 26-976); experiment: cell-based or functional assay
[2] = target: Mouse cKIT on C57BL/6J bone marrow cells (mouse, UniProt P05532 25-979); experiment: cell-based or functional assay
[3] = target: T1, Mouse cKIT ECD, C-terminal 6x His (Sino Biological Inc, Catalog number 50530-M08H) (mouse, UniProt P05532 25-527); experiment: cross reactivity, Table 6 (Example 4: Biacore SPR, antibody captured by anti-human Fc, cKIT ECD in solution)
T1 construct: extracellular domain
T1 sequence: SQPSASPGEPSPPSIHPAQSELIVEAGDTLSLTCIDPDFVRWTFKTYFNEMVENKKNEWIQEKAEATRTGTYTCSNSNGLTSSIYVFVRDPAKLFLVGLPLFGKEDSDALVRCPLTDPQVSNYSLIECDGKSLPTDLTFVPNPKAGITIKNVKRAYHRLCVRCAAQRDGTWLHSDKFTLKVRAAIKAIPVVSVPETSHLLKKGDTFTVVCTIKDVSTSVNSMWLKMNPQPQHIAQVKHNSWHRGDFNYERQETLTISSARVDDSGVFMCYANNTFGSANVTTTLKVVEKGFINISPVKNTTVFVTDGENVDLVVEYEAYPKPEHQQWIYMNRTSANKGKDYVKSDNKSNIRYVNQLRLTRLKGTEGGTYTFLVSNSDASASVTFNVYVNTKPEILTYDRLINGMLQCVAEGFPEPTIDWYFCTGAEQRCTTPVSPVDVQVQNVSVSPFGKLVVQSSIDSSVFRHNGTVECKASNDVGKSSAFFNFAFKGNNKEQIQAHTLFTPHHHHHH

[4] = target: T2, Rat cKIT D1-5, C-terminal mFc (rat); experiment: as above
T2 construct: also called rat cKIT-mFc
T2 chain: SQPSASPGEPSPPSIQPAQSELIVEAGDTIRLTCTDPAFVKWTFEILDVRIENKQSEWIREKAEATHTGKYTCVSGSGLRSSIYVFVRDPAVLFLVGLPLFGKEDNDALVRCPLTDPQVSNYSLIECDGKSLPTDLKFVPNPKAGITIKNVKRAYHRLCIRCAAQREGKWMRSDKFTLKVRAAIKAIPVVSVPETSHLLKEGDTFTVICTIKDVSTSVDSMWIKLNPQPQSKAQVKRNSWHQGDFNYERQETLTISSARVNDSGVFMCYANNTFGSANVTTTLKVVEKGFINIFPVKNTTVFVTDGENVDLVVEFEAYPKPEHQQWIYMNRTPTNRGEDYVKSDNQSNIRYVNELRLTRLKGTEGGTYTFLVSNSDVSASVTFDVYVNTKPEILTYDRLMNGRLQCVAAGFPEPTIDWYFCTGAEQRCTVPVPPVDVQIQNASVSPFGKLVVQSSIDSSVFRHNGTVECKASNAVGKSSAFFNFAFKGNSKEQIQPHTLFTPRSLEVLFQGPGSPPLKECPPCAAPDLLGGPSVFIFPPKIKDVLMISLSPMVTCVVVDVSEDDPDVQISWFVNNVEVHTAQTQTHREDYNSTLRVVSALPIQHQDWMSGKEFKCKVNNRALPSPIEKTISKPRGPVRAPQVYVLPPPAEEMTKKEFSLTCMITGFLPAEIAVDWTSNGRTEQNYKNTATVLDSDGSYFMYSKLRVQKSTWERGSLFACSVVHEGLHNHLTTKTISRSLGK

[5] = target: T3, Cynomolgus monkey cKIT D1-5 (cynomolgus monkey, UniProt P10721 26-524 (human entry)); experiment: 'in SET' by the column head; Example 4 describes Biacore SPR (antibody captured by anti-human Fc, cKIT ECD in solution)
T3 construct: also called cyno cKIT ECD
T3 chain: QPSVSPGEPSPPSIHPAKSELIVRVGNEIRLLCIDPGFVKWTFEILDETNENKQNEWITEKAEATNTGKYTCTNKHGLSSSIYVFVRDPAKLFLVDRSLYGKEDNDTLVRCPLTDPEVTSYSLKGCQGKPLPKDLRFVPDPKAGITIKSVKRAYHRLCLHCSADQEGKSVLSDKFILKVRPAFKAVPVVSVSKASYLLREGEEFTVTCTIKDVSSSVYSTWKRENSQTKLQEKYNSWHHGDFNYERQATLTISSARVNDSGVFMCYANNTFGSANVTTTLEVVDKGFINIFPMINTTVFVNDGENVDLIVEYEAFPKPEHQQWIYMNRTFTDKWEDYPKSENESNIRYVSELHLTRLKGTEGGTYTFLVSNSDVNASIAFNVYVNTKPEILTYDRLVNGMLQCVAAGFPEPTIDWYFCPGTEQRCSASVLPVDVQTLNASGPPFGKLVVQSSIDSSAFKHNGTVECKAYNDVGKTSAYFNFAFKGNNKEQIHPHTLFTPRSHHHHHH

Binder	EC50 (ng/ml), cell viability after 7 days, Human CD34+ cells [1] [ng/mL]	EC50 (ng/ml), cell viability after 7 days, Human CD90+ cells [1] [ng/mL]	EC50 (ng/ml), cell viability after 7 days, Human total nucleated cells [1] [ng/mL]	further results
B1	8	12	45	
B2				EC50 (ng/ml), cell viability after 7 days, Mouse CD45+ cells [2]: 3800 ng/mL; EC50 (ng/ml), cell viability after 7 days, Mouse cKIT+ cells [2]: 8 ng/mL; EC50 (ng/ml), cell viability after 7 days, Mouse total nucleated cells [2]: 3800 ng/mL
B3				EC50 (ng/ml), cell viability after 7 days, Mouse CD45+ cells [2]: 210 ng/mL; EC50 (ng/ml), cell viability after 7 days, Mouse cKIT+ cells [2]: 120 ng/mL; EC50 (ng/ml), cell viability after 7 days, Mouse total nucleated cells [2]: 210 ng/mL
B4	10	11	7	
B5	5	1	6	
B6	7	9	6	
B7	16	37	12	
B8	11	3	15	
B9	16	23	14	
B10	25	72	20	
B11	88	22	154	
B12	11	16	58	
B13	10	17	8	
B14	11	13	48	
B15				binding result [3]: no binding; binding result [4]: no binding; Kd [5]: 0.052 nM
